{
  "source": "paper PMC11098746",
  "about": "(2024)",
  "binders": {"B1": {"name": "79 (protein)", "chain": "YLEQIKNGISGHYTEDHNIKNNNCISFSDYERSIKNFAISSHAENNYDNIINEYKKIKDINNNINILSSVHRKGRILYDSFLEINKLENDKKEKHEKEDEYEDNDESFLETEEYEDNEDEKYNKDEDDYAESFIETDEYEDNEDDKYNKDEDDYSESFIETDEYDDNEEEQYNKDEDDYTDSFIETDHYENNDDKNEEEEEYNDQDNDYGYNFLETDEYDDSEEYDYDDKEYGESFLEKEEGEEMKDEEMKDEEMKDVEMKDEEMKDEEMKYDEMKNEEMKYDEMKDEVMKDEEMKDEVMKDEEMKDEQMKYEEFKNEESKNEESKNEESKNEESKNEEFKNEESKNEEFKNEEFKNEDMSYDEYMGYKKKEEDESYNTFNGAKKNNAANSFLEKDLQGDSDDELHSTFYSKNVDKENYDDKNIFYGYSDNDDESFLETDSYEEYEDEDKDVEDEYEESFLQNDEKKMVFYDLYKPEENEAYYEKKQKKEEKEEKEEKEQSLNKQNDMEDQEDNEEYKFEEENKEDLLDVQQDEELPSEGKQKVKGKSFDNEHLNEIQNVADVHAFIQKDMKYLDDLIDEEQTIKDAVKKSAYKGNKKLGNNKKSQMILEEEPEENFEEDADEELNKLMEQEKNIVDKEIKNSKANKANKKLQFNNANKQNKMYMKNEYNNKAKNNKNNKFEQQNYDESYMDDDYEQNEEFNDNNQAEDMKETNELDKINDELLTDQGPNEDTLLENNNKIFDNKFVAHKKREKSISPHSYQKVSTKVQNKEDMENKEEKQLINDEAAMTAEELVELENTEDVNTPTMVETEEIDSDENGNKAS", "modifications": "bait human Fc-tagged dimer"}, "B2": {"name": "71 (protein)", "chain": "EERYNFNMDKMLKITCHINLHLKKNPHFTITYKKNLQECIDSCKTNIYCTGIEFSRKRVEYTQIILKNNKKIILGYFKCKQFYFQNIYDYSSYNLDSYLNEHIENQINIKSTLTYTNFIMRNKPDIIYTCSIDRDPKYLLYKNYKLVECVIGKFCPGNNAPYMISCPINSATIIPASEDVNKCLCLKGYSYVGVTSYRCSLCDRGSYKNSVGNNKCDNCPLTFSTTHRGSTNIKDCSCTSGNYLTFD", "modifications": "bait human Fc-tagged dimer"}, "B3": {"name": "57 (protein)", "chain": "NDLCSCNLKVRNNWEHFLQVYQNNGNFKMEILEPECTIQKNLPSEEEKEEFIDFDRKELLLHDFVVIKNSQFTDEKTLELYLSKEENNKAYLMLTFYLGDLKLMIGHNSPYEISLILNVATVNKNMANCKNNAYNIVLLKTTDVFNTADLEILEGPIQFSLGKSSGAFRINVANFFLNNAWKAFTKDKISFLIKPEENCYTILENKINKPQLLIEKKTTFYSEWGEWSNCAMDCDHPDNVQIRERECIHPSGDCFKGDLKESRPCIIPLPPCNELFSHKDNS", "modifications": "bait human Fc-tagged dimer"}, "B4": {"name": "3 (protein)", "chain": "MGFHIQRYIAMMGRGINPKTWKKLWVDSKNKQIIHVYNDVAEFMNNQIAQVVRVYQYRY", "modifications": "also: human Fc-tagged dimer"}, "B5": {"name": "47 (protein)", "chain": "NNIAHKEDDCGASELAIKKLQELKKFELDILKDFIKKDTDHTDMYKRYHCISSDFLKNTKQEDKKEDNYAKKEDKKDIENSANYIINNKNEKISFINKIISFVGMWNYNKYGNNIQESKNKINIYNNNNNKAENELLYNKEDYTNHIPTNENPNSYMQLSAFNLAKKSMFLGGKDNAAQNFEVGNYGSFYMIFGARNTDYPWACSCDTLQLEEYKEKKRSYVLCSNQLDMSIQNSDLFCNPKN", "modifications": "bait human Fc-tagged dimer"}, "B6": {"name": "55 (protein)", "chain": "INVQIGNQKYSLCSNKIKKDLLDFYNTLGVSKSDKNLKDNIKKVNLYTKFRKRLYKDRLSIYANVAIKEKGEEVVPVKVVDEKENKENEEKTNILDQEIFTNFMQYNKNNFFCIDELGLDISIPFYKNSGFGANVVYQLPEMVYVNAYTNIYNTIIKGEFNSIDILKRISFFQFFDNFYLNAHYDFKSEKALLNLESKLYEYYNKHGDNIAFNNKIIVERNMHNEYDGSVCLSLKYNNNVFTPIFNFKDKTYEYVYDNLAANRKFSVKVDKERNVHFNYLSFDRVDESNKYFLFFNFIFSNPMQSIITLKREFIF", "modifications": "bait human Fc-tagged dimer"}, "B7": {"name": "1 (protein)", "chain": "EVESSDSTSFLNLISGQSSSNSDDTVSSSDSRGVVASVSGTVDSDVSRTDSTGNVNSKNSELSETRQNSVEQNNNANSADNSIKIKSAFLKENVGVKITGPCDEGFGLVMVPHIIINVDTRNTDIQLGKKSSEINYGIKLRKKGKDEYEEKVGIDLLKNVCETGKNFKFVAYIKGDELIIKWKVIEEGNIPIDIKKFKIKRMSPPITSIQVFSSMSDEKSFVLENKNYVVTNNMPEKCEALATNCFLSGNIDIEKCYQCSLLVENDAKSDVCYNFISRENKEKLNEERFKVKGSTEYEESVESELKGAIDLLISSFYKSDGENGENVLISFEDLNSALEDDIINFCSLLKLVDLSGTFMNHQIGTTADAFNNIVKLLKEHKEEDEFVLRTKLRNPALCMKNVDDWVKSRCGLLTSDDSYVVIKKNSDTNGKNENNEANDEEYDGVIDLSTNENGNVKSIQFNDDIYCNDDYCNRWKNENNCISKIGVEDQGNCASSWAFASKLHFETLRCMKGYDHLGISALYLTNCAKGKISKRCTEGGNPAEFLEIVSNSGFLPTEFDYPYFYALVENSCPSGLNKWINLWEDVKLFDYKYEPNSIGSKGYSVYKSEMFKDNMDEYVKMIKSEIKNKGSVIAYINAQSVLTYDFNGKNILNMCGSKTTDHSINVIGYGHYKNKEGEEKSYWLVRNSWGYYWGDEGNFKVDMYGPSNCNYHFINTVLVFNIDIPMMNNNENNKKGLYNYFPKYTHEFYHNFYDQNFGSDNKISLINSNGANKNDVNNAYTVHGQSGETEVQPSQLRSTANQDSNRGAVTSDPLRTQPETTSTSVKKMDVFQVLKHVKNSKIKVGLIKYDNDDEIGAHHSCTRAYSFDPEKYDECVEFCRKNWEQCKDKPSPGFCLTKLDESKGCFFCYV", "modifications": "bait human Fc-tagged dimer"}, "B8": {"name": "56 (protein)", "chain": "FLRNKEHANLINSYNDIVEDINIKKEEKSSSEPPFIPIKNKIDNVHTKNNNQYNLHNNKANKAHLTYGTHTSFLQNCAINDCVDVDNKDSEINNIAKEKDDNNNNNGAKQIEEKNKINKADLHRQNELNLQSGKNEQDINKNEKGKQDISNSNAENKKDVKEGVKELEEKKKEEKISDDHKVEENKKSDDHKVEENKKSDDHKVEENKKSDDHKIEEVKKVEEHEEDEEEDKKEKKSENKNKDENKDENDEDNDEISDEDEVDDDVEEDKNENDDIDDDKKETDKTHLEEEENEIIEKEFSDKKKNGKNKDTKKEKSKDTEKEKSKDIEKEKSKDKEKEKSKDKEKEKGKDKEKEKSKDIEKEKEKDKDIEKEKSKDTAKEKEKDKDIEKEKSKDMEKLKNKQNDEKKKDDNEKKKNDKQDIHDDNDDENDMEEIEENDDEEDEDEDMENKKKKKKGKNGNENGNENGAENGNENGNENGNENENKNEAENENENENENENGNENENEKENEKDKNIKEIENVANANKENYEKINKNSEITITKSNIDIYNNNRNNDIDKVNNHIFTNQQKKHNLHNEQNKFNEALNVATNHKNHYEEKKKYESNMFNVDKRMHKNLASMDTILHNLNDKLSHHKDLKNRELKLKFEAMSRIKEYKIYNELIQKSVEILTLRLTKINDELKKLKDISENALQKYINEKGYGLMKHYNFPEYNKLEEEKIMKRSKITWNEKKSHHLYCPMECNKERCYNRPRGPTQCYKLEQIGRNIETICEPFINEHNGACRPDFHHCAIAEPERNKKYSIYATDDVHFVPSQFVTIKGYNLHECLQFLVVKKNSACGPMTIEKNLMESEEILKEPVLSKVLYNEILFENIKISTPGEYNICLAQFYQDPEKDDILSENSANKYKKKKKNDMKVLGIDTIGTLYVLPLHEKQKTG", "modifications": "bait human Fc-tagged dimer"}},
  "note": "No end group written: not given here.",
  "data": [
    {"target": "FGFR4 ectodomain (Homo sapiens, UniProt P22455)", "assay": "AVEXIS normalised luminescence", "values": [
      {"binder": "B1", "binding score": 1.06},
      {"binder": "B2", "binding score": 1},
      {"binder": "B3", "binding score": 0.899},
      {"binder": "B4", "binding score": 0.753},
      {"binder": "B5", "binding score": 0.93},
      {"binder": "B6", "binding score": 0.922},
      {"binder": "B7", "binding score": 1.25},
      {"binder": "B8", "binding score": 0.733}
    ]}
  ]
}
